Measurements: article PMC8611056
Each block holds one substance with its values, some of them ahead of it.

Legend:
[1] = target: vWF on calcium ionophore-activated HUVEC monolayers (human (endogenous in HUVEC)); test: bacterial adhesion to cell monolayers (ELISA-type); ionophore-treated HUVEC monolayers incubated for 1 h with S. aureus SH1000 WT or isdB mutant (with or without 250 ng/well mAb 6D1 or isotype control), or with L. lactis with pNZ8037::isdB or empty vector
[2] = target: human von Willebrand factor (human) (UniProt P04275); test: ELISA; competition: wells coated with 1 μg of vWF, 1 μg of IsdB with or without 10 μg/well of each vWF ligand; detected with anti-IsdB IgG; percent of control without competitor
[3] = target: IsdB NEAT1 (aa residues 144-270) (S. aureus SH1000) (UniProt Q2FZF0); test: SPR; Biacore X-100; 6xHis-IsdB proteins captured on Ni2+-NTA chip, A1 lacking the 6xHis tag as analyte (0.08 to 1.25 μM), single-cycle mode, 25 °C; heterogeneous ligand binding model (two ligand populations L1, L2); buffer PBS with 0.005% Tween 20 or HBS-EP+ (methods)
[4] = target: IsdB NEAT1-NEAT2 (aa residues 48-480) (S. aureus SH1000) (UniProt Q2FZF0); test: as above
[5] = target: IsdB NEAT2 (aa residues 334-458) (S. aureus SH1000) (UniProt Q2FZF0); test: as above

Substance: IsdB on S. aureus SH1000 cells (from UniProt Q2FZF0 41-613) (natural protein)
adhesion of wild-type cells over isdB mutant cells [1]: 3 times

reduction of IsdB NEAT1-NEAT2 binding to vWF at 10 μg/well [2]: 50%
Substance: collagen type IV (complex)

reduction of IsdB NEAT1-NEAT2 binding to vWF at 10 μg/well [2]: 50%
Substance: collagen type VI (complex)

Substance: recombinant vWF A1 domain lacking the 6xHis tag (domain or fragment)
KD1 (ligand population L1) [3]: 53 µM
KD2 (ligand population L2) [3]: 5.3 µM
KD1 (ligand population L1) [4]: 1.7 µM
KD2 (ligand population L2) [4]: 0.9 µM
KD1 (ligand population L1) [5]: 0.3 µM
KD2 (ligand population L2) [5]: 0.4 µM
